Assay results taken from the supplement of paper PMC9732359.
± gives the uncertainty stated by the source.

Test: protein stability index of a GFP-peptide fusion (yeast GPS) (PSI 1-4); higher = more stable; sorted into four equal gates, so the index is relative within each strain
Method in brief: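 Plasmids isolated from each sorting gate were PCR-amplified and Illumina-sequenced, and barcodes assigned the reads to strains. The gates, four of equal size, were set by GFP/Cherry fluorescence ratio on mid-log cultures in leucine-free medium. These cultures were yeast carrying a pooled library of tiled 17-residue yeast protein peptides fused downstream of GFP on a plasmid that also expresses Cherry. The protein stability index is the sum of every gate's read frequency times its gate number.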

Row | Sequence | protein stability index (doa10∆) | protein stability index (pdr5∆) | protein stability index (san1∆) | protein stability index (ubr1∆)
1 | TLSTHSTTTSVNGSTTA [SIN4] | 2.79 ± 0.043 | 3.04 ± 0.038 | 3.114 ± 0.03 | 2.93 ± 0.031
2 | NQFKRIDTLLYLMTYPQ [RET1] | 1.4 ± 0.1 | 1.44 ± 0.11 | 1.48 ± 0.14 | 1.55 ± 0.067
3 | KPNDLVGVNKDSYLILD [RPT5] | 3.05 ± 0.17 | 3.4 ± 0.19 | 3.35 ± 0.082 | 3.49 ± 0.14
4 | CFVLGIASMSTVRASSL [SMC2] | 1.51 ± 0.056 | 1.86 ± 0.055 | 1.83 ± 0.072 | 1.94 ± 0.065
5 | QGPRSYFLDVKCPGCLN [RPS27A] | 2.93 ± 0.097 | 3.38 ± 0.1 | 3.13 ± 0.08 | 2.6 ± 0.11
6 | ISELPPQIRQEIEQLDQ [YGL172W/NUP49] | 2.98 ± 0.084 | 3.06 ± 0.061 | 2.65 ± 0.088 | 3.06 ± 0.049
7 | YGESDIHFREHQSELII [YMR129W/POM152] | 2.31 ± 0.089 | 2.89 ± 0.096 | 2.21 ± 0.13 | 2.49 ± 0.077
8 | SGGSVNLYHVTEDGWIY [PRE2] | 2.85 ± 0.12 | 3.16 ± 0.15 | 3 ± 0.087 | 3.04 ± 0.089
9 | TGAYIANRVTDKLTRVH [PRE3] | 1.57 ± 0.068 | 1.76 ± 0.059 | 1.59 ± 0.083 | 1.54 ± 0.056
10 | ILHGSKSQEQREHSLQL [PRP28] | 3.11 ± 0.1 | 2.69 ± 0.089 | 2.92 ± 0.067 | 2.35 ± 0.041
11 | DLVIVDENELKKSEEKL [MTW1] | 3.51 ± 0.19 | – | – | –
12 | NKENDNVPSTKFNAAPE [SNF12] | 3.38 ± 0.055 | 3.36 ± 0.068 | 3.17 ± 0.06 | 3.14 ± 0.056
13 | GETRMKMLNEFVKKTSE [SMC2] | 3.28 ± 0.1 | 3 ± 0.092 | 2.91 ± 0.068 | 3.26 ± 0.082
14 | RKMTTDDDINWQELARS [RPT5] | 1.79 ± 0.055 | 2.93 ± 0.072 | 3.16 ± 0.097 | 3 ± 0.07
15 | VQKDTAIIRLHPSIYTQ [POP1] | 2.73 ± 0.29 | 2.19 ± 0.11 | – | 1.88 ± 0.14
16 | EFCDEPSVGVKTMKTFV [RPB5] | 3.15 ± 0.12 | 3.56 ± 0.27 | – | –
17 | CLTGTVAARMFHILLKL [ECM29] | 2.42 ± 0.093 | 2.03 ± 0.096 | 2.74 ± 0.058 | 2.44 ± 0.069
18 | EDGTSASFQIVEEDHTL [RPC19] | 3.02 ± 0.16 | 3.69 ± 0.17 | 3.4 ± 0.12 | 3.25 ± 0.13
19 | IEILVKDNECSSFEENN [RRI2] | 2.86 ± 0.13 | 3.02 ± 0.13 | 2.89 ± 0.12 | 3.33 ± 0.12
20 | VDRSKYNIELPLPPRID [RPT1] | 3.33 ± 0.2 | 3.58 ± 0.26 | 3.15 ± 0.094 | 3.14 ± 0.17
21 | DLESSSPELKADLRPLQ [RPS7B] | 2.89 ± 0.29 | 2.97 ± 0.21 | – | 3.27 ± 0.17
22 | DVECIKAKSHFTNIISR [YJL039C/NUP192] | 3.04 ± 0.092 | 3.1 ± 0.098 | 2.73 ± 0.078 | 2.97 ± 0.056
23 | KYRQTKLSKEERAARVA [RPL5] | 2.7 ± 0.11 | 3.05 ± 0.071 | 2.97 ± 0.13 | 2.65 ± 0.07
24 | QIPLHRAASVGSLKLIE [NAS6] | 2.04 ± 0.078 | 2.16 ± 0.084 | 2.23 ± 0.14 | 1.83 ± 0.1
25 | PISAVLRGCKFLQSVDI [GRR1] | 2.08 ± 0.041 | 2.08 ± 0.053 | 1.83 ± 0.052 | 2.01 ± 0.036
26 | PAFSFNSSVGNKTDAQA [YJL041W/NSP1] | 2.82 ± 0.14 | 3.47 ± 0.11 | 2.85 ± 0.1 | 3.16 ± 0.085
27 | LLYLRLKNIYVSADDFV [PRP8] | 1.26 ± 0.052 | 1.39 ± 0.054 | 1.27 ± 0.097 | 1.16 ± 0.046

Row | Sequence | protein stability index (doa10∆) | protein stability index (pdr5∆) | protein stability index (san1∆) | protein stability index (ubr1∆)
28 | VKMLRDNPGYKASKEIK [SIR3] | 3.08 ± 0.17 | 3.38 ± 0.19 | – | 3.15 ± 0.11
29 | DVSQLIAGINKKKGLDE [PRP28] | 3.43 ± 0.095 | 3.64 ± 0.11 | 3.29 ± 0.086 | 3.76 ± 0.11
30 | SLSIKLATLHYQKKQYK [RPN6] | 1.33 ± 0.064 | 1.28 ± 0.061 | 1.34 ± 0.11 | 1.34 ± 0.079
31 | IFTEKIYKSIFNVVDVG [YJL039C/NUP192] | 1.99 ± 0.07 | 1.71 ± 0.072 | 1.72 ± 0.14 | 1.33 ± 0.065
32 | FLHESSFDSIDHSWFLL [CSI1] | 2.67 ± 0.075 | 2.93 ± 0.061 | 2.48 ± 0.072 | 2.87 ± 0.044
33 | MQPFDSGHDDLVHDVVY [YGL100W/SEH1] | 3.23 ± 0.1 | 3.43 ± 0.11 | 3.13 ± 0.084 | 3.26 ± 0.093
34 | PAPINSLSRDFVMKTRR [SNU114] | 3.15 ± 0.081 | 2.95 ± 0.064 | 2.97 ± 0.049 | 3.15 ± 0.051
35 | GSAATSGFEFSKEDTLR [RPN1] | 2.61 ± 0.15 | 3.14 ± 0.16 | 2.72 ± 0.15 | 3.08 ± 0.13
36 | LLTAKHGMTLRESFEDN [RPO21] | 2.96 ± 0.13 | 2.56 ± 0.087 | 2.6 ± 0.086 | 1.55 ± 0.092
37 | PIDDTMTLLTDSLRKLY [MTW1] | 1.89 ± 0.067 | 2.52 ± 0.062 | 1.73 ± 0.093 | 2.22 ± 0.052
38 | IEFEYDPWNKLKHTDYW [RPB3] | 2.85 ± 0.1 | 2.69 ± 0.17 | 2.81 ± 0.089 | 3.06 ± 0.089
39 | IRENKVTYSRVSKKVDV [BRN1] | 2.76 ± 0.1 | 2.93 ± 0.11 | 2.94 ± 0.081 | 3.04 ± 0.087
40 | IEEEIFDDSSRIVNHKT [LIN1] | 3.14 ± 0.083 | 2.91 ± 0.1 | 3.11 ± 0.072 | 2.97 ± 0.071
41 | MVNSHGIRYIRLKQVFN [NNF1] | 1.46 ± 0.048 | 1.67 ± 0.04 | 1.88 ± 0.19 | 1.81 ± 0.052
42 | LDYVRTPAAATSPIDIR [SNF2] | 2.33 ± 0.056 | 2.45 ± 0.063 | 2.14 ± 0.077 | 2.36 ± 0.045
43 | MIELICSSATVPKHMLD [AAR2] | 1.85 ± 0.082 | 2.26 ± 0.078 | 1.82 ± 0.11 | 1.94 ± 0.058
44 | EGNQGSLQEDVSFDFNG [MED8] | 3.17 ± 0.12 | 3.41 ± 0.085 | 3.23 ± 0.062 | 3.2 ± 0.07
45 | EYNRLKVQDAIEEEIFD [LIN1] | 2.83 ± 0.057 | 2.31 ± 0.05 | 2.85 ± 0.057 | 2.93 ± 0.055
46 | DCLSFAPTLSQTYINQE [SSN2] | 2.69 ± 0.074 | 2.76 ± 0.081 | 2.77 ± 0.087 | 2.91 ± 0.048
47 | ITFLIEKAKEMIRLLGS [ECM29] | 2.6 ± 0.12 | 2.26 ± 0.1 | 2.9 ± 0.11 | 1.7 ± 0.12
48 | SKWFNLEKIHSIEVQSL [SWI3] | 2.67 ± 0.24 | 2.45 ± 0.13 | 1.59 ± 0.14 | 2.72 ± 0.12
49 | KEHAPYTDELEEDVYLD [FAS2] | – | 3.48 ± 0.27 | – | 3.04 ± 0.26
50 | KAASSTRIFQALPRKLR [POP1] | 2.64 ± 0.1 | 3.36 ± 0.15 | 2.76 ± 0.12 | 2.77 ± 0.086
51 | IWPAEDALRRGMLAMAS [MED4] | 3.12 ± 0.11 | 3.24 ± 0.099 | 3.05 ± 0.075 | 3.27 ± 0.086
52 | RHFWGLRVRGQHTKTTG [RPS18A] | 1.81 ± 0.062 | 1.99 ± 0.087 | 1.77 ± 0.12 | 2.16 ± 0.056
53 | LDDITDSNTTEILTSVD [SIR4] | 3.26 ± 0.066 | 3.18 ± 0.072 | 2.94 ± 0.069 | 3.08 ± 0.065
54 | VARIYASFNDTFVHVTD [RPS14A] | 1.96 ± 0.06 | 1.73 ± 0.04 | 2.12 ± 0.07 | 2.2 ± 0.055
